In patent US20230295258A1:

Biological target: IL-12 receptor of human T cells (human) (UniProt P42701)
Assay: cell-based or functional assay

IL-12 receptor of human T cells (human), sequence (Q99665 24-862, chain 2 of 2, other chains not shown): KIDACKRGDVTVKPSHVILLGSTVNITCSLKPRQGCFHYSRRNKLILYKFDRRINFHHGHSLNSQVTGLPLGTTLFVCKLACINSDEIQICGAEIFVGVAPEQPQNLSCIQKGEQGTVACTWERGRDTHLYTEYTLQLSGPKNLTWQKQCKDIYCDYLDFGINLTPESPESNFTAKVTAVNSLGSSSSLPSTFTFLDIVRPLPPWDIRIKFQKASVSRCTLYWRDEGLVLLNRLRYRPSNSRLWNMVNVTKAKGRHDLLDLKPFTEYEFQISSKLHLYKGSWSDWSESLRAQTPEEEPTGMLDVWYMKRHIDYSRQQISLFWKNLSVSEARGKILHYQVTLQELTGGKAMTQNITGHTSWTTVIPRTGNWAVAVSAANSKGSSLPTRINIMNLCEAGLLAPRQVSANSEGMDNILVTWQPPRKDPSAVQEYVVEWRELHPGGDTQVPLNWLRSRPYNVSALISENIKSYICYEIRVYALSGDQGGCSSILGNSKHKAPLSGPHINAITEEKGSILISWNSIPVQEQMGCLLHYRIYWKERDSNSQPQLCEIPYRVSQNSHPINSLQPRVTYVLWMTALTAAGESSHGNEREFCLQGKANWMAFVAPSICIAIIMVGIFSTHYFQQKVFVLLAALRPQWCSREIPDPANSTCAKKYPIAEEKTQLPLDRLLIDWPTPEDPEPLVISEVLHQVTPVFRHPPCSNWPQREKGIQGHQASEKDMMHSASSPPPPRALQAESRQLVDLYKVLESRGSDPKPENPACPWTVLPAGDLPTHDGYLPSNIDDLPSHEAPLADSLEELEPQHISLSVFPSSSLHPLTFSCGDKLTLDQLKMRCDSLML

half maximal effective concentration (EC50) of p-STAT4 (Tyr693) in activated human T cells, AlphaLISA: 8.95 pM
Substance: recombinant human IL-12 (from UniProt P29459 23-219; P29460 23-328) (ligand)
